# Measurements: article PMC11662656, “Intrinsically disordered RNA-binding motifs cooperate to catalyze RNA folding and drive phase separation”
# T1: Loc1p (3-15) (Saccharomyces cerevisiae, UniProt P43586 3-15)
# T1 chain: PKKPSKRQNLRRE
# T2: Loc1p array peptide A9 (Saccharomyces cerevisiae, UniProt P43586 25-44)
# T2 chain: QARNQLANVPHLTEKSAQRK
# T3: Loc1p array peptide A7 (Saccharomyces cerevisiae, UniProt P43586 19-38)
# T3 chain: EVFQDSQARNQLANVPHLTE
# T4: Loc1p array peptide A11 (Saccharomyces cerevisiae, UniProt P43586 31-50)
# T4 chain: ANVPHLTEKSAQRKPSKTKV
# T5: Loc1p array peptide A10 (Saccharomyces cerevisiae, UniProt P43586 28-47)
# T5 chain: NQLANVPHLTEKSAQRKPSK
# T6: Loc1p array peptide B19 (Saccharomyces cerevisiae, UniProt P43586 115-134)
# T6 chain: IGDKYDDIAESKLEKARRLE
# Columns and labels:
# [1] = molecular target: T1, Loc1p (3-15); experiment: NMR (1H-15N HSQC titration); range over peptide signals; EMSA: 20 mM HEPES pH 7.8, 200 mM NaCl, 2 mM MgCl2, 2 mM DTT, 4% glycerol, 25 C, 5 nM RNA, 100 ug/ml tRNA (omitted in competition); NMR: 20 mM Na phosphate pH 7.4, 50 mM NaCl, 278 K; details: protein: recombinant; tags: GST removed by thrombin (15N,13C sample); hairpin, 11 bp stem, GAAA loop
# [2] = molecular target: T7, MBP-Loc1p (Saccharomyces cerevisiae, UniProt P43586 1-204); experiment: competition; vs labeled ASH1 E3; 10-500x; EMSA: 20 mM HEPES pH 7.8, 200 mM NaCl, 2 mM MgCl2, 2 mM DTT, 4% glycerol, 25 C, 5 nM RNA, 100 ug/ml tRNA (omitted in competition); NMR: 20 mM Na phosphate pH 7.4, 50 mM NaCl, 278 K; details: protein: recombinant; tags: MBP; hairpin
# [3] = molecular target: Loc1p (Saccharomyces cerevisiae, UniProt P43586 1-204); experiment: EMSA; nanomolar range; 100 ug/ml yeast tRNA; EMSA: 20 mM HEPES pH 7.8, 200 mM NaCl, 2 mM MgCl2, 2 mM DTT, 4% glycerol, 25 C, 5 nM RNA, 100 ug/ml tRNA (omitted in competition); NMR: 20 mM Na phosphate pH 7.4, 50 mM NaCl, 278 K; details: protein: recombinant; hairpin
# [4] = molecular target: Loc1p (Saccharomyces cerevisiae, UniProt P43586 1-204); experiment: EMSA; nanomolar range; 100 ug/ml yeast tRNA; EMSA: 20 mM HEPES pH 7.8, 200 mM NaCl, 2 mM MgCl2, 2 mM DTT, 4% glycerol, 25 C, 5 nM RNA, 100 ug/ml tRNA (omitted in competition); NMR: 20 mM Na phosphate pH 7.
# [5] = molecular target: T7, MBP-Loc1p; experiment: competition; vs labeled TAR-57; 10-500x; EMSA: 20 mM HEPES pH 7.8, 200 mM NaCl, 2 mM MgCl2, 2 mM DTT, 4% glycerol, 25 C, 5 nM RNA, 100 ug/ml tRNA (omitted in competition); NMR: 20 mM Na phosphate pH 7.4, 50 mM NaCl, 278 K; details: protein: recombinant; tags: MBP
# [6] = molecular target: T8, MBP-Loc1p (Saccharomyces cerevisiae, UniProt P43586 1-204); experiment: competition; vs labeled ASH1 E3; 10-500x; EMSA: 20 mM HEPES pH 7.8, 200 mM NaCl, 2 mM MgCl2, 2 mM DTT, 4% glycerol, 25 C, 5 nM RNA, 100 ug/ml tRNA (omitted in competition); NMR: 20 mM Na phosphate pH 7.
# [7] = molecular target: T8, MBP-Loc1p; experiment: competition; vs labeled TAR-57; 10-500x; EMSA: 20 mM HEPES pH 7.8, 200 mM NaCl, 2 mM MgCl2, 2 mM DTT, 4% glycerol, 25 C, 5 nM RNA, 100 ug/ml tRNA (omitted in competition); NMR: 20 mM Na phosphate pH 7.
# [8] = molecular target: T8, MBP-Loc1p; experiment: EMSA; 100 nM DNA; affinity similar to ssRNA; EMSA: 20 mM HEPES pH 7.8, 200 mM NaCl, 2 mM MgCl2, 2 mM DTT, 4% glycerol, 25 C, 5 nM RNA, 100 ug/ml tRNA (omitted in competition); NMR: 20 mM Na phosphate pH 7.
# [9] = molecular target: T2, Loc1p array peptide A9; experiment: peptide array; EMSA: 20 mM HEPES pH 7.8, 200 mM NaCl, 2 mM MgCl2, 2 mM DTT, 4% glycerol, 25 C, 5 nM RNA, 100 ug/ml tRNA (omitted in competition); NMR: 20 mM Na phosphate pH 7.4, 50 mM NaCl, 278 K; details: tags: array-immobilized; label: radioactive
# [10] = molecular target: T3, Loc1p array peptide A7; experiment: as above; details: tags: array-immobilized; label: radioactive
# [11] = molecular target: Loc1p array peptide B6 (Saccharomyces cerevisiae, UniProt P43586 76-95); experiment: as above; details: tags: array-immobilized; label: radioactive
# [12] = molecular target: Loc1p array peptide B7 (Saccharomyces cerevisiae, UniProt P43586 79-98); experiment: as above; details: tags: array-immobilized; label: radioactive
# [13] = molecular target: Loc1p array peptide A14 (Saccharomyces cerevisiae, UniProt P43586 40-59); experiment: as above; details: tags: array-immobilized; label: radioactive
# [14] = molecular target: T4, Loc1p array peptide A11; experiment: as above; details: tags: array-immobilized; label: radioactive
# [15] = molecular target: Loc1p array peptide B5 (Saccharomyces cerevisiae, UniProt P43586 73-92); experiment: as above; details: tags: array-immobilized; label: radioactive
# [16] = molecular target: Loc1p array peptide A15 (Saccharomyces cerevisiae, UniProt P43586 43-62); experiment: as above; details: tags: array-immobilized; label: radioactive
# [17] = molecular target: Loc1p array peptide B8 (Saccharomyces cerevisiae, UniProt P43586 82-101); experiment: as above; details: tags: array-immobilized; label: radioactive
# [18] = molecular target: T5, Loc1p array peptide A10; experiment: as above; details: tags: array-immobilized; label: radioactive
# [19] = molecular target: T6, Loc1p array peptide B19; experiment: as above; details: tags: array-immobilized; label: radioactive
# [20] = molecular target: Loc1p array peptide C15 (Saccharomyces cerevisiae, UniProt P43586 163-182); experiment: as above; details: tags: array-immobilized; label: radioactive
binder,measurement,setting,value
UCUCUGGUUAGGAAACUAACUAGGGA (structured_RNA) [dsRNA tetraloop],Kd,[1],~73.7 µM
HIV TAR-57 (structured_RNA) RNA: GGUCUCUCUGGUUAGACCAGAUCUGAGCCUGGGAGCUCUCUGGCUAACUAGGGAACC,binding result,[2],binds
same,binding result,[3],binds
poly-A60 (ssRNA) RNA: AAAAAAAAAAAAAAAAAAAAAAAAAAAAAAAAAAAAAAAAAAAAAAAAAAAAAAAAAAAA,binding result,[4],binds
same,binding result,[5],binds
same,binding result,[6],binds
CGAAGAUGAAAAUGAUCACGAGAGAGAUCCCGAACAAUUUUCAGAAUUUG (ssRNA) [EAR1 LE],binding result,[4],binds
same,binding result,[7],binds
AAAAAAAAAAAAAAAAAAAAA (ssDNA) [Cy3-A(21) ssDNA],binding result,[8],binds
ASH1 E3 (short) (structured_RNA) RNA: AUGGAUAACUGAAUCUCUUUCAACUAAUAAGAGACAUUAUCACGAAACAAU,binding result,[9],binds
same,binding result,[10],no binding
same,binding result,[11],binds
same,binding result,[12],binds
same,binding result,[13],binds
same,binding result,[14],binds
same,binding result,[15],binds
same,binding result,[16],binds
same,binding result,[17],binds
same,binding result,[18],binds
same,binding result,[19],no binding
same,binding result,[20],binds
